From patent US20170275666A1, “Methods for Preparing Rebaudioside I and Uses” (The Coca-Cola Company, priority 2014, published 2017)
Positions count from the first letter of the chain named.

B1: UGT76G1var67: UGT76G1 variant, mutations E224D_F314S_S375R_Y397E (protein, UniProt Q6VAB4 1-458, looked up, variant E224D F314S S375R Y397E)
UDP-glycosyltransferase 76G1: MENKTETTVRRRRRIILFPVPFQGHINPILQLANVLYSKGFSITIFHTNFNKPKTSNYPHFTFRFILDNDPQDERISNLPTHGPLAGMRIPIINEHGADELRRELELLMLASEEDEEVSCLITDALWYFAQSVADSLNLRRLVLMTSSLFNFHAHVSLPQFDELGYLDPDDKTRLEEQASGFPMLKVKDIKSAYSNWQILKEILGKMIKQTKASSGVIWNSFKDLEESELETVIREIPAPSFLIPLPKHLTASSSSLLDHDRTVFQWLDQQPPSSVLYVSFGSTSEVDEKDFLEIARGLVDSKQSFLWVVRPGSVKGSTWVEPLPDGFLGERGRIVKWVPQQEVLAHGAIGAFWTHSGWNSTLESVCEGVPMIFRDFGLDQPLNARYMSDVLKVGVELENGWERGEIANAIRRVMVDEEGEYIRQNARVLKQKADVSLMKGGSSYESLESLVSYISSL
B2: UGT76G1var70: UGT76G1 variant, mutations E224A_I295T_V300A_G348P (protein, UniProt Q6VAB4 1-458, looked up, variant E224A I295T V300A G348P)
UDP-glycosyltransferase 76G1: B1 UDP-glycosyltransferase 76G1 with D224A, I295T, V300A, S314F, G348P, R375S, E397Y
B3: UGT76G1var4: UGT76G1 variant, mutations E224D_E231A_F265I (protein, UniProt Q6VAB4 1-458, looked up, variant E224D E231A F265I)
UDP-glycosyltransferase 76G1: B1 UDP-glycosyltransferase 76G1 with E231A, F265I, S314F, R375S, E397Y
B4: UGT76G1var72: UGT76G1 variant, mutations T284L_D301N_K303G_S375R (protein, UniProt Q6VAB4 1-458, looked up, variant T284L D301N K303G S375R)
UDP-glycosyltransferase 76G1: B1 UDP-glycosyltransferase 76G1 with D224E, T284L, D301N, K303G, S314F, E397Y
B5: UGT76G1var87: UGT76G1 variant, mutations S241I_L243A_V300A_F314S_N409R (protein, UniProt Q6VAB4 1-458, looked up, variant S241I L243A V300A F314S N409R)
UDP-glycosyltransferase 76G1: B1 UDP-glycosyltransferase 76G1 with D224E, S241I, L243A, V300A, R375S, E397Y, N409R
B6: UGT76G1var71: UGT76G1 variant, mutations I295M_V300A_K393G_Q432E (protein, UniProt Q6VAB4 1-458, looked up, variant I295M V300A K393G Q432E)
UDP-glycosyltransferase 76G1: B1 UDP-glycosyltransferase 76G1 with D224E, I295M, V300A, S314F, R375S, K393G, E397Y, Q432E
B7: UGT76G1var84: UGT76G1 variant, mutations F22L_Q266S_F314S_A352G_S357C (protein, UniProt Q6VAB4 1-458, looked up, variant F22L Q266S F314S A352G S357C)
UDP-glycosyltransferase 76G1: B1 UDP-glycosyltransferase 76G1 with F22L, D224E, Q266S, A352G, S357C, R375S, E397Y
B8: UGT76G1var80: UGT76G1 variant, mutations L243P_L379A_S389E_Q425E_Q432E (protein, UniProt Q6VAB4 1-458, looked up, variant L243P L379A S389E Q425E Q432E)
UDP-glycosyltransferase 76G1: B1 UDP-glycosyltransferase 76G1 with D224E, L243P, S314F, R375S, L379A, S389E, E397Y, Q425E, Q432E
B9: UGT76G1var82: UGT76G1 variant, mutations E224D_L243A_F265L_R334H_A352G (protein, UniProt Q6VAB4 1-458, looked up, variant E224D L243A F265L R334H A352G)
UDP-glycosyltransferase 76G1: B1 UDP-glycosyltransferase 76G1 with L243A, F265L, S314F, R334H, A352G, R375S, E397Y
B10: UGT76G1var86: UGT76G1 variant, mutations E224A_T284L_V396F_Y397E_I407V (protein, UniProt Q6VAB4 1-458, looked up, variant E224A T284L V396F Y397E I407V)
UDP-glycosyltransferase 76G1: B1 UDP-glycosyltransferase 76G1 with D224A, T284L, S314F, R375S, V396F, I407V
B11: UGT76G1var79: UGT76G1 variant, mutations E224D_T284I_V366I_I373L_K393G (protein, UniProt Q6VAB4 1-458, looked up, variant E224D T284I V366I I373L K393G)
UDP-glycosyltransferase 76G1: B1 UDP-glycosyltransferase 76G1 with T284I, S314F, V366I, I373L, R375S, K393G, E397Y
B12: UGT76G1var90: UGT76G1 variant, mutations E231A_S241I_S274G_Y397Q_Q425E (protein, UniProt Q6VAB4 1-458, looked up, variant E231A S241I S274G Y397Q Q425E)
UDP-glycosyltransferase 76G1: B1 UDP-glycosyltransferase 76G1 with D224E, E231A, S241I, S274G, S314F, R375S, E397Q, Q425E
B13: UGT76G1var81: UGT76G1 variant, mutations A33G_T263S_S274G_V279I_Y397E (protein, UniProt Q6VAB4 1-458, looked up, variant A33G T263S S274G V279I Y397E)
UDP-glycosyltransferase 76G1: B1 UDP-glycosyltransferase 76G1 with A33G, D224E, T263S, S274G, V279I, S314F, R375S
B14: UGT76G1var74: UGT76G1 variant, mutations I295T_I373L_S375R_Y397Q_Q432E (protein, UniProt Q6VAB4 1-458, looked up, variant I295T I373L S375R Y397Q Q432E)
UDP-glycosyltransferase 76G1: B1 UDP-glycosyltransferase 76G1 with D224E, I295T, S314F, I373L, E397Q, Q432E
B15: UGT76G1var68: UGT76G1 variant, mutations Q342K_G348P_I373L_Y397E (protein, UniProt Q6VAB4 1-458, looked up, variant Q342K G348P I373L Y397E)
UDP-glycosyltransferase 76G1: B1 UDP-glycosyltransferase 76G1 with D224E, S314F, Q342K, G348P, I373L, R375S
B16: UGT76G1var83: UGT76G1 variant, mutations I43V_Q342E_S357N_S375R_L379G (protein, UniProt Q6VAB4 1-458, looked up, variant I43V Q342E S357N S375R L379G)
UDP-glycosyltransferase 76G1: B1 UDP-glycosyltransferase 76G1 with I43V, D224E, S314F, Q342E, S357N, L379G, E397Y
B17: UGT76G1var85: UGT76G1 variant, mutations T284L_G348P_F377C_P382M_N409R (protein, UniProt Q6VAB4 1-458, looked up, variant T284L G348P F377C P382M N409R)
UDP-glycosyltransferase 76G1: B1 UDP-glycosyltransferase 76G1 with D224E, T284L, S314F, G348P, R375S, F377C, P382M, E397Y, N409R
B18: UGT76G1var69: UGT76G1 variant, mutations S274G_I295T_I335V_L379A (protein, UniProt Q6VAB4 1-458, looked up, variant S274G I295T I335V L379A)
UDP-glycosyltransferase 76G1: B1 UDP-glycosyltransferase 76G1 with D224E, S274G, I295T, S314F, I335V, R375S, L379A, E397Y
B19: UGT76G1var76: UGT76G1 variant, mutations F22Y_A239I_L246F_I295M_R334K (protein, UniProt Q6VAB4 1-458, looked up, variant F22Y A239I L246F I295M R334K)
UDP-glycosyltransferase 76G1: B1 UDP-glycosyltransferase 76G1 with F22Y, D224E, A239I, L246F, I295M, S314F, R334K, R375S, E397Y
B20: UGT76G1var75: UGT76G1 variant, mutations F41L_A239I_Q266S_S375M_P382M (protein, UniProt Q6VAB4 1-458, looked up, variant F41L A239I Q266S S375M P382M)
UDP-glycosyltransferase 76G1: B1 UDP-glycosyltransferase 76G1 with F41L, D224E, A239I, Q266S, S314F, R375M, P382M, E397Y
B21: UGT76G1var91: UGT76G1 variant, mutations E224A_L246F_T263S_F265I_Q342K (protein, UniProt Q6VAB4 1-458, looked up, variant E224A L246F T263S F265I Q342K)
UDP-glycosyltransferase 76G1: B1 UDP-glycosyltransferase 76G1 with D224A, L246F, T263S, F265I, S314F, Q342K, R375S, E397Y
B22: UGT76G1var5: UGT76G1 variant, mutations F22Y_I373L_P382M (protein, UniProt Q6VAB4 1-458, looked up, variant F22Y I373L P382M)
UDP-glycosyltransferase 76G1: B1 UDP-glycosyltransferase 76G1 with F22Y, D224E, S314F, I373L, R375S, P382M, E397Y
B23: UGT76G1var88: UGT76G1 variant, mutations A239V_T284I_V310I_Q342K_L379A (protein, UniProt Q6VAB4 1-458, looked up, variant A239V T284I V310I Q342K L379A)
UDP-glycosyltransferase 76G1: B1 UDP-glycosyltransferase 76G1 with D224E, A239V, T284I, V310I, S314F, Q342K, R375S, L379A, E397Y
B24: UGT76G1var78: UGT76G1 variant, mutations V279I_V300A_V310I_I335V_S357C (protein, UniProt Q6VAB4 1-458, looked up, variant V279I V300A V310I I335V S357C)
UDP-glycosyltransferase 76G1: B1 UDP-glycosyltransferase 76G1 with D224E, V279I, V300A, V310I, S314F, I335V, S357C, R375S, E397Y
B25: UGT76G1var77: UGT76G1 variant, mutations A239V_F265I_I295T_D301N_K393G (protein, UniProt Q6VAB4 1-458, looked up, variant A239V F265I I295T D301N K393G)
UDP-glycosyltransferase 76G1: B1 UDP-glycosyltransferase 76G1 with D224E, A239V, F265I, I295T, D301N, S314F, R375S, K393G, E397Y
B26: UGT76G1var6: UGT76G1 variant, mutations Q266S_S357N_I373L (protein, UniProt Q6VAB4 1-458, looked up, variant Q266S S357N I373L)
UDP-glycosyltransferase 76G1: B1 UDP-glycosyltransferase 76G1 with D224E, Q266S, S314F, S357N, I373L, R375S, E397Y
B27: UGT76G1var89: UGT76G1 variant, mutations F41L_E229A_E231A_F265L_P272A (protein, UniProt Q6VAB4 1-458, looked up, variant F41L E229A E231A F265L P272A)
UDP-glycosyltransferase 76G1: B1 UDP-glycosyltransferase 76G1 with F41L, D224E, E229A, E231A, F265L, P272A, S314F, R375S, E397Y
B28: UGT76G1var73: UGT76G1 variant, mutations F22Y_D301N_R334H_Q342E_V396F (protein, UniProt Q6VAB4 1-458, looked up, variant F22Y D301N R334H Q342E V396F)
UDP-glycosyltransferase 76G1: B1 UDP-glycosyltransferase 76G1 with F22Y, D224E, D301N, S314F, R334H, Q342E, R375S, V396F, E397Y

assay: Directed evolution of UGT76G1, conversion of Rebaudioside D to Rebaudioside M (round 1); type: biochemical; conditions: 0.5 mM Rebaudioside D, 2.5 mM UDP-Glucose, 100 μL fresh lysate, 30° C., pH 7.2
Summary of the method: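 UGT76G1 variants carrying 3-5 designed mutations were expressed in E. coli BL21(DE3) (pET30a+, 44 h at 20° C) and lysed. Lysate was reacted with 0.5 mM Reb D, 2.5 mM UDP-glucose, 3 mM MgCl2 in 50 mM phosphate pH 7.2 at 30° C; HPLC-CAD sampling at 2, 4, 7, 24 h gave conversion and initial rate.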

Molecule | Conversion Reb D to Reb M after 24 h (%) | initial rate (Reb M area/min)
B1 | −2.1% | −5.6E+05 Reb M area/min
B2 | 24.0% | 8.4E+06 Reb M area/min
B3 | 14.7% | 8.6E+06 Reb M area/min
B4 | 19.2% | 9.1E+06 Reb M area/min
B5 | 35.7% | 2.1E+07 Reb M area/min
B6 | 42.9% | 2.1E+07 Reb M area/min
B7 | 1.2% | 2.3E+05 Reb M area/min
B8 | 1.0% | 2.1E+05 Reb M area/min
B9 | 1.1% | 2.5E+05 Reb M area/min
B10 | 1.6% | 3.8E+05 Reb M area/min
B11 | 8.5% | 3.8E+06 Reb M area/min
B12 | 34.5% | 1.9E+07 Reb M area/min
B13 | 15.0% | 6.5E+06 Reb M area/min
B14 | 0.6% | 9.6E+04 Reb M area/min
B15 | −1.4% | −1.1E+05 Reb M area/min
B16 | 0.5% | 4.3E+04 Reb M area/min
B17 | 1.8% | 4.0E+05 Reb M area/min
B18 | 24.7% | 8.3E+06 Reb M area/min
B19 | 2.6% | 7.2E+05 Reb M area/min
B20 | 0.8% | −1.3E+05 Reb M area/min
B21 | 1.2% | 2.3E+05 Reb M area/min
B22 | 3.5% | 2.3E+06 Reb M area/min
B23 | 1.6% | 3.8E+05 Reb M area/min
B24 | 3.2% | 8.2E+05 Reb M area/min
B25 | 1.9% | 4.4E+05 Reb M area/min
B26 | 0.5% | 1.8E+06 Reb M area/min
B27 | 1.2% | 2.1E+05 Reb M area/min
B28 | 0.8% | 8.7E+05 Reb M area/min
